Patent publication US20130130985A1

Tests used:
Experiment in all cases: cell-based or functional assay
[1] = biological target: T1, human vasopressin V1b receptor (human), P47901
T1 chain: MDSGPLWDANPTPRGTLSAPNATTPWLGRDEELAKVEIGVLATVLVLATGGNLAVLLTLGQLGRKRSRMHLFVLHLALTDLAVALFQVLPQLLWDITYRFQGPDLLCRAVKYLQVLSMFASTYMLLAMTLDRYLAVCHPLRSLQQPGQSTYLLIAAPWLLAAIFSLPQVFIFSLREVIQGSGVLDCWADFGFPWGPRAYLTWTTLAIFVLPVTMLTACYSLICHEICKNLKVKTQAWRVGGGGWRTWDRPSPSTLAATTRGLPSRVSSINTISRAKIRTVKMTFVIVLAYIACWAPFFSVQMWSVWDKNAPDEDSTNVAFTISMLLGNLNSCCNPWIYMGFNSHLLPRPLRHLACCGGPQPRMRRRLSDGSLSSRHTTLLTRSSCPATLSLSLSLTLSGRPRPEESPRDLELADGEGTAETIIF

[2] = biological target: human vasopressin V2 receptor (human), P30518
[3] = biological target: T2, human oxytocin receptor (human), P30559
T2 chain: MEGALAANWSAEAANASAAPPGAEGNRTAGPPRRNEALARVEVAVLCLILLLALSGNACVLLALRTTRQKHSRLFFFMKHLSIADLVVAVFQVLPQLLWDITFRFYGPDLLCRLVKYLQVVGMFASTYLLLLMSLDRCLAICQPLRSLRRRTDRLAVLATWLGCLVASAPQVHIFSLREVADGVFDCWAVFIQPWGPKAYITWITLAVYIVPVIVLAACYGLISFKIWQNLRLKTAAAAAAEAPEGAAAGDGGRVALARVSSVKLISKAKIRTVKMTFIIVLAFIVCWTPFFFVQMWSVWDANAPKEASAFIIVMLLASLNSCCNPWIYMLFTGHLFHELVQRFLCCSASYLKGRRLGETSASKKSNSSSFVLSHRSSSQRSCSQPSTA

[4] = biological target: human vasopressin V1a receptor (human), P37288
Chain of human vasopressin V1a receptor (human), P37288 (P37288 whole entry): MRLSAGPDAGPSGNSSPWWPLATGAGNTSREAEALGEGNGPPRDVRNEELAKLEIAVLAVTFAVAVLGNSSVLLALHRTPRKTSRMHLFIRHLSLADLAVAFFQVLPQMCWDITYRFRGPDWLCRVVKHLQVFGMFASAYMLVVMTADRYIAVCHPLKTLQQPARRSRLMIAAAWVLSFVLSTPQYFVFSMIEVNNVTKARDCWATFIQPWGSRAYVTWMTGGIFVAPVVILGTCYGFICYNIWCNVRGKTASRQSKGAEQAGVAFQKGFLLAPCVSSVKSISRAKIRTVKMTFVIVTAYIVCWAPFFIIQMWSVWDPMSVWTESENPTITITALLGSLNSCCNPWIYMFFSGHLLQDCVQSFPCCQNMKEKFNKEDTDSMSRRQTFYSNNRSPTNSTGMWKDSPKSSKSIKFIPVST

Binder: UYIQNUPLG (not fully specified; modifications not checked) [d[C1,6U]-OT]
- Emax, FLIPR calcium assay [1]: 92%
- Emax, IP-One HTRF assay [1]: 96%
- Emax, cAMP accumulation assay [2]: 134%
- EC50, IP-One HTRF assay [3]: 400 nM
- Emax, FLIPR calcium assay [3]: 89%
- Emax, IP-One HTRF assay [3]: 72%
- Emax, FLIPR calcium assay [4]: 100%
